Values of other authors, collected in US20030134789A1, “Compositions and methods for protecting tissues and cells from damage, and for repairing damaged tissues” (priority 2001, published 2003).

Conditions: humans, an hour after ingesting 200 g of raw peanuts

B1: peanut agglutinin (PNA): dietary lectin found in the blood of humans after ingesting raw peanuts (protein, UniProt P02872 24-273, looked up)
Galactose-binding lectin: AETVSFNFNSFSEGNPAINFQGDVTVLSNGNIQLTNLNKVNSVGRVLYAMPVRIWSSATGNVASFLTSFSFEMKDIKDYDPADGIIFFIAPEDTQIPAGSIGGGTLGVSDTKGAGHFVGVEFDTYSNSEYNDPPTDHVGIDVNSVDSVKTVPWNSVSGAVVKVTVIYDSSTKTLSVAVTNDNGDITTIAQVVDLKAKLPERVKFGFSASGSLGGRQIHLIRSWSFTSTLITTTRRSIDNNEKKIMNMASA
  level in the blood: 1000 to 5000 ng/mL
